The values below come from patent US20090130105A1.

As usually defined, the IC50 is the concentration that gives 50% inhibition.

In experiment [1] the target is human IGF-1R(1-903)-Fc (human) (UniProt P08069). The experiment is described as follows: ELISA on hIGF-1R-Fc; competitor biotinylated M14-G11; +++++ = 90-100%. (In general: An ELISA detects its analyte on a solid surface through an enzyme-linked reagent.)
Experiment [2] has the same target. The experiment in a line: ELISA, blocking of 320 nM IGF-1 His on biotinylated hIGF-1R-Fc.
Experiment [3] shares this target. The experiment is described as follows: ELISA on hIGF-1R-Fc; competitor Zenon-labeled αIR3; +++++ = 90-100%.

Sequence of human IGF-1R(1-903)-Fc (human) (P08069 31-933): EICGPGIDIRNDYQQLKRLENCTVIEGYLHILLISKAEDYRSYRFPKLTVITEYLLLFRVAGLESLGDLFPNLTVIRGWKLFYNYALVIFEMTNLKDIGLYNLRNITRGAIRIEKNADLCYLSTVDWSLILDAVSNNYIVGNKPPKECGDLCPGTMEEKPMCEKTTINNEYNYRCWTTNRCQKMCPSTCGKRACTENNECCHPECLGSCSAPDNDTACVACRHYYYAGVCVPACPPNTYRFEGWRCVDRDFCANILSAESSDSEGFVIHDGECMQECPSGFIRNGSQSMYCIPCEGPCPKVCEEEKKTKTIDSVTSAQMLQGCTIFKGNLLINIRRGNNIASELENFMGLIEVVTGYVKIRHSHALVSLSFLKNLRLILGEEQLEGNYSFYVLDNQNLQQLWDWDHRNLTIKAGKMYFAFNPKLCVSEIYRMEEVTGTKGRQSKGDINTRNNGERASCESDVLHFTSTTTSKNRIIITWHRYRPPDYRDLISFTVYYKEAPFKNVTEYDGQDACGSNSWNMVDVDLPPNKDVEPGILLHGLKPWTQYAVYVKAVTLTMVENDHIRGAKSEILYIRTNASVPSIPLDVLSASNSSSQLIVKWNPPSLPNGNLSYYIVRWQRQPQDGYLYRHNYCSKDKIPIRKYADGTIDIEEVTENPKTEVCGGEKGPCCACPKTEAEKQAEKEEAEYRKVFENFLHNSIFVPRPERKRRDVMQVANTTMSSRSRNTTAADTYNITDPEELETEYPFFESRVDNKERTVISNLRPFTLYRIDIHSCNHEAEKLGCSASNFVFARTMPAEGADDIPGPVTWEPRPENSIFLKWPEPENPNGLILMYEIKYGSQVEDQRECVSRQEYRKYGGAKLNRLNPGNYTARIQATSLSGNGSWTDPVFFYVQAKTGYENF

For αIR3 antibody, the percent competition in experiment [1] is 90 to 100%. In experiment [2], this substance returned a % IGF-1 (at 320 nM) bound to IGF-1R at saturating antibody concentrations of 23% and a concentration for half-maximal inhibition (IC50) of 4.9 nM. In addition, the percent competition in experiment [3] is 90 to 100%.
